Data from PMC5760085.

How the values were obtained:
[1] = molecular target: Aleuria aurantia lectin (Aleuria aurantia) (UniProt P18891); assay: BLI; competition with L-Fuc: AAL-loaded biosensor blocked with 0.1 M L-Fuc in the second baseline step, and the mucin sample incubated with L-Fuc (BSM 1 μM to 0.1 M; MUC5B 1 μM to 100 μM)
[2] = molecular target: Aleuria aurantia lectin (Aleuria aurantia) (UniProt P18891); assay: BLI; biotinylated AAL (1.5 μg/mL) loaded on High Precision Streptavidin (SAX) biosensors, mucin in solution; Octet RED96, kinetics mode, 25°C, 1000 rpm, sample diluent

Chain of UniProt P18891 (P18891 whole entry): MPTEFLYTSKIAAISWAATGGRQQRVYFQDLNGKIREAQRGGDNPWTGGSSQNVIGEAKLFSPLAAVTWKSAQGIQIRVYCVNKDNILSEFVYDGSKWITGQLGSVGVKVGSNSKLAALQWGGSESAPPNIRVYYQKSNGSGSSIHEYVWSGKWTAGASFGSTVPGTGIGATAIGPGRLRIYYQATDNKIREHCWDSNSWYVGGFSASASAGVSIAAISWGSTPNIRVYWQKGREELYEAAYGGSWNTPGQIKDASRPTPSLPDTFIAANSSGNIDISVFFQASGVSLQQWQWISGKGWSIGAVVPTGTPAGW

fold lower association with 100 μM Fuc than without Fuc [1]: 5 times lower
fold lower binding response than MUC5B [2]: 10 times lower
Substance: Bovine Submaxillary Mucin (natural protein)
